Source: article PMC5042576

Biological target: Actin filaments decorated with Tpm3.1 (chicken | human) (UniProt P68139)

Chain of Mouse melanophilin with N-terminal SNAP tag and C-terminal Flag tag (Q91V27 whole entry): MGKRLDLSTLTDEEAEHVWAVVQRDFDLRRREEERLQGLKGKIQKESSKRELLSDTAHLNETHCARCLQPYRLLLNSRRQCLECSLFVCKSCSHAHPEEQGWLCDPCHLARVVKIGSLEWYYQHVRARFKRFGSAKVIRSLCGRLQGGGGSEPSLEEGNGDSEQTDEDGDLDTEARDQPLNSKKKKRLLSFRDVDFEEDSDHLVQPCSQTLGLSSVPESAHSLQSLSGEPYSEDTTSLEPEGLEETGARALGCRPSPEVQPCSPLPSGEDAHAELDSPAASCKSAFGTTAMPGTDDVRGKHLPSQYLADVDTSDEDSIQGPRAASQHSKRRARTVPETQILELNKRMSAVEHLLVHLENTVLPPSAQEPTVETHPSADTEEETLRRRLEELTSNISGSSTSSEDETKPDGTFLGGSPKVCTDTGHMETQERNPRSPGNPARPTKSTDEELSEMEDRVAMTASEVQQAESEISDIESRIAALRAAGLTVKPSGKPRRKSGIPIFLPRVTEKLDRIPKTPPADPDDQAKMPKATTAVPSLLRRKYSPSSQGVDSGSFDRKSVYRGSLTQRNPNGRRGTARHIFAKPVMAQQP

fold affinity against actin–Tpm1.8 and actin–Tpm4.2: 2 fold
Substance: Mouse melanophilin with N-terminal SNAP tag and C-terminal Flag tag (from UniProt Q91V27 1-590) (natural protein)
